Experimental data taken from IntAct's records for PubMed 31515488.

B1: Ligand of Numb protein X 2 (Homo sapiens), Q8N448 (parent)
chain: MGTTSDEMVSVEQTSSSSLNPLCFECGQQHWTRENHLYNYQNEVDDDLVCHICLQPLLQPLDTPCGHTFCYKCLRNFLQEKDFCPLDRKRLHFKLCKKSSILVHKLLDKLLVLCPFSSVCKDVMQRCDLEAHLKNRCPGASHRRVALERRKTSRTQAEIENENGPTLLDPAGTLSPEADCLGTGAVPVERHLTSASLSTWSEEPGLDNPAFEESAGADTTQQPLSLPEGEITTIEIHRSNPYIQLGISIVGGNETPLINIVIQEVYRDGVIARDGRLLAGDQILQVNNYNISNVSHNYARAVLSQPCNTLHLTVLRERRFGNRAHNHSDSNSPREEIFQVALHKRDSGEQLGIKLVRRTDEPGVFILDLLEGGLAAQDGRLSSNDRVLAINGHDLKYGTPELAAQIIQASGERVNLTIARPGKPQPGNTIREAGNHSSSSQHHTPPPYYSRPSSHKDLTQCVTCQEKHITVKKEPHESLGMTVAGGRGSKSGELPIFVTSVPPHGCLARDGRIKRGDVLLNINGIDLTNLSHSEAVAMLKASAASPAVALKALEVQIVEEATQNAEEQPSTFSENEYDASWSPSWVMWLGLPSTLHSCHDIVLRRSYLGSWGFSIVGGYEENHTNQPFFIKTIVLGTPAYYDGRLKCGDMIVAVNGLSTVGMSHSALVPMLKEQRNKVTLTVICWPGSLV
partner: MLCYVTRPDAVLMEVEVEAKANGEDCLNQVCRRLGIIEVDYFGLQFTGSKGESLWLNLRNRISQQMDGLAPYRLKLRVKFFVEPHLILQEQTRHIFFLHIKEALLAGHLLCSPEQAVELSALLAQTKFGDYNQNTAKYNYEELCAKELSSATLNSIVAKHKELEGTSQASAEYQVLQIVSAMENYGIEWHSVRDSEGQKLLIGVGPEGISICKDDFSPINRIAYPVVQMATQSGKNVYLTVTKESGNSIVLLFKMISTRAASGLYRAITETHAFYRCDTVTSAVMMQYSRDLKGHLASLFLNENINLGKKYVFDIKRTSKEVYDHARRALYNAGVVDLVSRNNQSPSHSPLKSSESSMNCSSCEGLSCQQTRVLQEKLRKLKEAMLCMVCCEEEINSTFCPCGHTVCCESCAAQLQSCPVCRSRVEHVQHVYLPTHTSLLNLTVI
B2: LIM/homeobox protein Lhx4 (Homo sapiens), Q969G2 (parent)
chain: MMQSATVPAEGAVKGLPEMLGVPMQQIPQCAGCNQHILDKFILKVLDRHWHSSCLKCADCQMQLADRCFSRAGSVYCKEDFFKRFGTKCTACQQGIPPTQVVRKAQDFVYHLHCFACIICNRQLATGDEFYLMEDGRLVCKEDYETAKQNDDSEAGAKRPRTTITAKQLETLKNAYKNSPKPARHVREQLSSETGLDMRVVQVWFQNRRAKEKRLKKDAGRHRWGQFYKSVKRSRGSSKQEKESSAEDCGVSDSELSFREDQILSELGHTNRIYGNVGDVTGGQLMNGSFSMDGTGQSYQDLRDGSPYGIPQSPSSISSLPSHAPLLNGLDYTVDSNLGIIAHAGQGVSQTLRAMAGGPTSDISTGSSVGYPDFPTSPGSWLDEMDHPPF
partner: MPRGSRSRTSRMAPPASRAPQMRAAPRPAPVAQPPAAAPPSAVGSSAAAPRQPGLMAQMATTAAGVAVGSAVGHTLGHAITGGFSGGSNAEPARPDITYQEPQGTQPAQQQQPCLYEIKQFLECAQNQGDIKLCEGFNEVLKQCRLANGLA
B3: Growth arrest and DNA damage-inducible protein GADD45 gamma (Homo sapiens), O95257 (parent)
chain: MTLEEVRGQDTVPESTARMQGAGKALHELLLSAQRQGCLTAGVYESAKVLNVDPDNVTFCVLAAGEEDEGDIALQIHFTLIQAFCCENDIDIVRVGDVQRLAAIVGAGEEAGAPGDLHCILISNPNEDAWKDPALEKLSLFCEESRSVNDWVPSITLPE
B4: Nucleoporin p54 (Homo sapiens), Q7Z3B4 (parent)
chain: MAFNFGAPSGTSGTAAATAAPAGGFGGFGTTSTTAGSAFSFSAPTNTGTTGLFGGTQNKGFGFGTGFGTTTGTSTGLGTGLGTGLGFGGFNTQQQQQTTLGGLFSQPTQAPTQSNQLINTASALSAPTLLGDERDAILAKWNQLQAFWGTGKGYFNNNIPPVEFTQENPFCRFKAVGYSCMPSNKDEDGLVVLVFNKKETEIRSQQQQLVESLHKVLGGNQTLTVNVEGTKTLPDDQTEVVIYVVERSPNGTSRRVPATTLYAHFEQANIKTQLQQLGVTLSMTRTELSPAQIKQLLQNPPAGVDPIIWEQAKVDNPDSEKLIPVPMVGFKELLRRLKVQDQMTKQHQTRLDIISEDISELQKNQTTSVAKIAQYKRKLMDLSHRTLQVLIKQEIQRKSGYAIQADEEQLRVQLDTIQGELNAPTQFKGRLNELMSQIRMQNHFGAVRSEERYYIDADLLREIKQHLKQQQEGLSHLISIIKDDLEDIKLVEHGLNETIHIRGGVFS

Variants of: B1
Conditions: with mylip_human MYLIP

Variant	effect of a mutation on the interaction
S198P	with no effect

Variants of: B2
Conditions: with chch2_human CHCHD2, Q9Y6H1

Variant	effect of a mutation on the interaction
N328S	with no effect

Variants of: B3
Conditions: with af1l1_human AFAP1L1, Q8TED9
Chain of af1l1_human AFAP1L1, Q8TED9 (Q8TED9 whole entry): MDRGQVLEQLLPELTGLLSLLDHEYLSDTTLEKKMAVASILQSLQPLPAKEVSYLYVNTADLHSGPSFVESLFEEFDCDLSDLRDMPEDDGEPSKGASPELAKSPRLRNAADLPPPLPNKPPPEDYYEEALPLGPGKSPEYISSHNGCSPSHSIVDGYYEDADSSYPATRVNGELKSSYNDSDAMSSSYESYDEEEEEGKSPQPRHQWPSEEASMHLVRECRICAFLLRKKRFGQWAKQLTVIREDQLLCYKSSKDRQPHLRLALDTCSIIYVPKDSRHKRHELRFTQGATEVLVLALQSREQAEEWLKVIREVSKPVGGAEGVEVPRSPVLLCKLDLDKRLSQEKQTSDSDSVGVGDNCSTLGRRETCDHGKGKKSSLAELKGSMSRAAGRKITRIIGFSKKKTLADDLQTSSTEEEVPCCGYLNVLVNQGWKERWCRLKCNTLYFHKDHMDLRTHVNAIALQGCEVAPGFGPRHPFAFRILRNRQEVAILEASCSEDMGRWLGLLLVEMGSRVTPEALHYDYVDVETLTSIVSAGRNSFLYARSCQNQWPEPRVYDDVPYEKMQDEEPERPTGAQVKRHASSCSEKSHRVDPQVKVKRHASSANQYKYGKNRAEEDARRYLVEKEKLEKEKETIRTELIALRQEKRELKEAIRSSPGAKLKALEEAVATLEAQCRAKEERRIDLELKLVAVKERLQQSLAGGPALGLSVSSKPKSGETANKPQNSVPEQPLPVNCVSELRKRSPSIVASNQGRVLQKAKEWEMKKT

Variant	effect of a mutation on the interaction
G112S	with no effect

Variants of: B3
Conditions: with rwd2b_human RWDD2B

Variant	effect of a mutation on the interaction
G112S	disrupting interaction strength

Variants of: B4
Conditions: with nup62_human NUP62, P37198
Chain of nup62_human NUP62, P37198 (P37198 whole entry): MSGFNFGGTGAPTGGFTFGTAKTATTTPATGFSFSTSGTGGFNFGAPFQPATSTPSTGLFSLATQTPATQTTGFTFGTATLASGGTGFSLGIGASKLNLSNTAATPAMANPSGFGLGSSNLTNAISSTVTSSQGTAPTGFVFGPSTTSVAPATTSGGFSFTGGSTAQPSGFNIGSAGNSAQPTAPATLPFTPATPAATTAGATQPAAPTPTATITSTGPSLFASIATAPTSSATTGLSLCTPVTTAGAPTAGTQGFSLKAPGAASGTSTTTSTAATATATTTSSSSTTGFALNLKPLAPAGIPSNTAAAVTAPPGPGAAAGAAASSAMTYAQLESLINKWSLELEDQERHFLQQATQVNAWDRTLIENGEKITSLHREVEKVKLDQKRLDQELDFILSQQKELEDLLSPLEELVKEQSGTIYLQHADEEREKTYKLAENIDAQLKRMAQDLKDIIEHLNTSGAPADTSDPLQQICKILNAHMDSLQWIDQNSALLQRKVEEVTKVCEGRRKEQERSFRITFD

Variant	effect of a mutation on the interaction
R385K	with no effect

Variants of: B4
Conditions: with nup58_human NUP58, Q9BVL2
Chain of nup58_human NUP58, Q9BVL2 (Q9BVL2 whole entry): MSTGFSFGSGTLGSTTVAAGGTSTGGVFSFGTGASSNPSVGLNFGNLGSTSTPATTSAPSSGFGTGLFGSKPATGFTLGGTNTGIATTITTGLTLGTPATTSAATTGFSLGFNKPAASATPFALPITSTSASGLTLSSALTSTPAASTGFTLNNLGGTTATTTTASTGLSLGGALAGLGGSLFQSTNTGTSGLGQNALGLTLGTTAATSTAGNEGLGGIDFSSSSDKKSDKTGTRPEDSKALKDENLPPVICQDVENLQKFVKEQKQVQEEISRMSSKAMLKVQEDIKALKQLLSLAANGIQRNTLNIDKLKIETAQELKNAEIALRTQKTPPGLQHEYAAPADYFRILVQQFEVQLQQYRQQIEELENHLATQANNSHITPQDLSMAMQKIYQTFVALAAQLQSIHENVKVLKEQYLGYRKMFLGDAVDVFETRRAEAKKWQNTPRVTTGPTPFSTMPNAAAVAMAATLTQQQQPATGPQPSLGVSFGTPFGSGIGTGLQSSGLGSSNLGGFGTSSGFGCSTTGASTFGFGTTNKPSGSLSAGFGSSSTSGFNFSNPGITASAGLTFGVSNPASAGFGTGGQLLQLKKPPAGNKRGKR

Variant	effect of a mutation on the interaction
R385K	with no effect

Variants of: B4
Conditions: with hgs_human HGS

Variant	effect of a mutation on the interaction
R385K	with no effect

Variants of: B4
Conditions: with KRT15, P19012
Chain of KRT15, P19012 (P19012 whole entry): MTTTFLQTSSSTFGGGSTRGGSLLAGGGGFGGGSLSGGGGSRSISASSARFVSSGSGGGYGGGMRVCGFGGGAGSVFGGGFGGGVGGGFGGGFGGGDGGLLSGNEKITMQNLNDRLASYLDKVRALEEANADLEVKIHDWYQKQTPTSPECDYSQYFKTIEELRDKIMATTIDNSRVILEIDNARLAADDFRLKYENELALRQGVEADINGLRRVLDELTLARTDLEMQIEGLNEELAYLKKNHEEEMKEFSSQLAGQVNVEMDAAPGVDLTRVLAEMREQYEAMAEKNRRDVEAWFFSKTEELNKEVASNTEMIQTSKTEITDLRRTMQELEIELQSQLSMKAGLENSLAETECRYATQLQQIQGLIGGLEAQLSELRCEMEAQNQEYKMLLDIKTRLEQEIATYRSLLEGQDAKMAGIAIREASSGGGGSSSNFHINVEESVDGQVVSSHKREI

Variant	effect of a mutation on the interaction
R385K	with no effect

Variants of: B4
Conditions: with nup58_human NUP58, Q9BVL2
Remark: another data set of the same source

Variant	effect of a mutation on the interaction
T416A	with no effect

Variants of: B4
Conditions: with hgs_human HGS
Remark: another data set of the same source

Variant	effect of a mutation on the interaction
T416A	with no effect

Variants of: B4
Conditions: with nup62_human NUP62, P37198
Remark: another data set of the same source

Variant	effect of a mutation on the interaction
T416A	with no effect

Variants of: B4
Conditions: with KRT15, P19012
Remark: another data set of the same source

Variant	effect of a mutation on the interaction
T416A	with no effect
